Experimental findings from publication doi:10.1101/2022.09.05.506711 are described below.

This assay addresses Francisella tularensis class II fructose-1,6-bisphosphatase (Francisella tularensis). Briefly: crystal structure.

The term stoichiometry N denotes a count of units in the complex or per binding partner.

The substance “Francisella tularensis class II fructose-1,6-bisphosphatase (enzyme)” came in with a stoichiometry N of 4.
